{"source": "patent US5847076A", "about": "“Regulators of the proteasome” (Board of Regents, The University of Texas System, priority 1993, dated 1998)", "molecules": {"B1": {"name": "PI31: inhibitor protein of the proteasome purified from bovine red blood cells, Mr=31,000 subunit (protein, UniProt Q3SX30 2-270, looked up)", "Proteasome inhibitor PI31 …": "AGLEVLFASAAPAITCAQDALVCFLHWEVVTHGYYGLGAGDQPGPNDKKSELLPVEWNSNKDLYVLRYESKDGSRKLLVKAVTVENSMIINVLEHGSQQVSDLTLNLNDYIDSEHLVDFHRVYKNSEELRSRIVSGIITPIHEQWEKANLSPHREFPPATAREVDPLRIHPQHPHTSRQPTWCDPLGPFAVGGEDLDPFGCRRGGMIVDPLRSGFPRALIDPSSGLPNRLPPGAVPPGARFDPFGPIGTSPSGPNPDHLPPPGYDDMYL"}}, "key": {"proteasome": {"target": "T1, proteasome", "T1 construct": "from tissue", "experiment": "Binding of PA28 carboxy-terminal peptides to the proteasome", "excerpt": "(§1) Therefore, this peptide or a compound with similar properties may be used to block the action of the proteasome in intact cells. Such a compound or analogs having similar binding activity may be used to control accelerated rates of intracellular protein degradation. The peptide has the sequence: Acetyl-KNFEKLKKPRGETKGMIY (SEQ ID NO. 3). The N-terminal lysine may be acetylated if needed for stability. […] Therefore, the C-terminal Ile-Tyr amino acids or their functional equivalents appear to be important for binding of the 18-mer to the proteasome and for inhibition of the activation of the proteasome by activating factors PA28 and PA700. An equivalent of the 18-mer may comprise less than 18 amino acids or may comprise functionally equivalent amino acid replacements which allow similar binding activity."}, "[1]": {"target": "T2, proteasome activation by PA700", "T2 construct": "from tissue", "experiment": "Inhibition of proteasome activation by PA700 by C18 peptide", "assay_type": "biochemical", "conditions": "for inhibition of proteasome activation by PA700: FIG. 27; for effect of peptide alone on proteasome activity: no activator", "experimental": "Activation of the proteasome by PA700 was performed in the presence of the indicated concentrations of purified C18 peptide.\nas §1"}, "[2]": {"target": "T3, proteasome activation by PA28", "T3 construct": "from tissue", "experiment": "Inhibition of PA28-activated proteasome by carboxy-terminal peptide", "assay_type": "biochemical", "conditions": "for inhibition of proteasome activation by PA28: 0.5 μg proteasome, 1 μg PA28 (FIG. 26)", "experimental": "Proteasome activity in the absence of PA28 was 1.2 units/assays. Assays contained 0.5 μg of proteasome and 1 μg of PA28.\nas §1"}, "[3]": {"test_system": "proteasome (latent and active forms)", "conditions": "cited from earlier work"}, "[4]": {"conditions": "listed as 18 amino acid peptide"}}, "note": "Ends that are not written are not given here."}
{"molecule": "Acetyl-KNFEKLKKPRGETKGMIY (Ac-KNFEKLKKPRGETKGMIY) [C18, 18 amino acid peptide corresponding to the carboxyterminal 18 amino acids of PA28]", "values": [{"measurement": "binding to the proteasome", "setting": "proteasome", "result": "does bind to it"}, {"measurement": "inhibition of proteasome activation by PA700", "setting": "[1]", "result": "competitively inhibits proteasome activation by PA700"}, {"measurement": "inhibition of proteasome activation by PA700", "setting": "[1]; [4]", "result": "competitively inhibits the binding and activation of proteasome activator, PA700"}, {"measurement": "effect of peptide alone on proteasome activity", "setting": "[1]", "result": "had no effect on baseline proteasome activity"}, {"measurement": "effect of peptide alone on proteasome activity", "setting": "[1]; [4]", "result": "does not activate the proteasome"}, {"measurement": "inhibition of proteasome activation by PA28", "setting": "[2]", "result": "inhibition of PA28-activated proteasome"}, {"measurement": "inhibition of proteasome activation by PA28", "setting": "[2]; [4]", "result": "competitively inhibits binding and activation of PA28"}]}
{"molecule": "Ile-Tyr", "values": [{"measurement": "activity of the dipeptide by itself", "setting": "[2]; kind of activity not specified further", "result": "very weak activity"}]}
{"molecule": "B1", "values": [{"measurement": "inhibition of peptidase and protease activities of the proteasome", "setting": "[3]", "result": "inhibited all of the peptidase and protease activities of both the latent and active forms of the proteasome by a non-competitive mechanism"}]}
